Source: patent US20180371066A1 (C2N DIAGNOSTICS, published 2018)
Blank lines part the entries; values can stand above or below the binder they belong to.

Assays:
[1] = target: T1, recombinant human Tau-412 protein (human, UniProt P10636-7 1-412); experiment: SPR Biacore T200, mAb captured on Protein A, Tau-412 analyte, 1-to-1 model, chip A11/1
T1 construct: Analyte of the SPR study; also called human tau (1N4R, 412 amino acids)
Method: (§1) Kinetic data was obtained at a flow rate of 40 μL/min to minimize any potential mass transfer effects. Two repeats of the blank (no antigen) and the 2.5 nM concentration of the analyte were programmed into the kinetic run in order to check the stability of both the surface and analyte over the kinetic cycles. For the initial kinetic runs, 2-fold dilutions of Tau-412 from 40 nM to 0.156 nM were run. For kinetic analysis and on subsequent runs, an analyte range of 20 nM to 0.625 nM was selected. This range covered multiple analyte concentrations both above and below the reported KD.
(§2) The association phase was monitored for 500 seconds to allow some of the higher concentrations of analyte to reach steady state. In order to observe a sufficient signal decrease (>10%) during the dissociation phase of the kinetic cycle, dissociation was measured for 1200 seconds. As discussed in Section 5, the Fcs were allowed to stabilize for 600 seconds after each regeneration step. The signal from the reference channel Fc1 was subtracted from that of Fc2, Fc3 and Fc4.
(§3) The kinetic parameters for the interaction of Tau-412 with the 7 mAbs as measured using the Protein A capture system on the Biacore T200 are shown in Table F-2. To correct for differences in the capture level of the antibody between each binding cycle, a local Rₘₐₓ parameter was used in the 1-to-1 binding model. Kinetic analysis was performed in three independent runs using fresh preparations of Tau-412 and antibody. Run 1 and runs 2+3 used different vials of the antigen Tau-412; therefore the reported errors associated with the mean response probably represent variation in preparation of the analyte and differences in assay set-up and run. From run 1 to runs 2+3, the amount of antibody injected was adjusted to try to get closer to the target 300 RU capture levels.
Target sequence in this assay (P10636 other isoform, or with tags, fused parts or gaps limits assumed): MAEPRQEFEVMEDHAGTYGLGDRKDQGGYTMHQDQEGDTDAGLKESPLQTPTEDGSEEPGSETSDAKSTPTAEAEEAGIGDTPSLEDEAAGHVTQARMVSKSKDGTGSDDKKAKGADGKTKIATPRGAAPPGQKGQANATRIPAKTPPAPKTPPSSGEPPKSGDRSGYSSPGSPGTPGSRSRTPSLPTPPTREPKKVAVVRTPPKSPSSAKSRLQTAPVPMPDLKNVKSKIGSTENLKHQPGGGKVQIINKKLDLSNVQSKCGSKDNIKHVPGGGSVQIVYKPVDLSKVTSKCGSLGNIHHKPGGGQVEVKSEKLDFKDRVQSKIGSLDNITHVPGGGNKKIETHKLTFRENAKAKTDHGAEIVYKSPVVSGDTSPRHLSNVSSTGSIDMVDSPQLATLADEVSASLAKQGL

[2] = target: T1, recombinant human Tau-412 protein; experiment: SPR Biacore T200, mAb captured on Protein A, Tau-412 analyte, 1-to-1 model, chip A11/3
Method: as §1, §2, §3

[3] = target: T1, recombinant human Tau-412 protein; experiment: SPR Biacore T200, mAb captured on Protein A, Tau-412 analyte, 1-to-1 model, chip A11/2
Method: as §1, §2, §3

[4] = target: T1, recombinant human Tau-412 protein; experiment: SPR Biacore T200, Protein A capture, mean of the Chimeric runs
Method: as §1, §2, §3

human tau [5] = target: T2, human tau (human, UniProt P10636 2-60); experiment: competition ELISA on plate-coated human tau against biotinylated HJ8.5; IC50 normalised to chimeric HJ8.5 (reference row); column External
T2 construct: also called soluble human tau; human tau protein

human tau [6] = target: T2, human tau; experiment: competition ELISA on plate-coated human tau against biotinylated HJ8.5; IC50 normalised to chimeric HJ8.5 (reference row); column C2N Run 1
human tau [7] = target: T2, human tau; experiment: competition ELISA on plate-coated human tau against biotinylated HJ8.5; IC50 normalised to chimeric HJ8.5 (reference row); column C2N Run 2
PEP_2875814 = target: T3, PEP_2875814; experiment: peptide array of 15-mers of human tau probed with the antibody; label LIN
T3 peptide: LGDRKDQGGYTMHQD

PEP_2875806 = target: T4, PEP_2875806; experiment: as above
T4 peptide: GTYGLGDRKDQGGYT

PEP_2875810 = target: T5, PEP_2875810; experiment: as above
T5 peptide: YGLGDRKDQGGYTMH

PEP_2875818 = target: T6, PEP_2875818; experiment: as above
T6 peptide: DRKDQGGYTMHQDQE

PEP_2875820 = target: T7, PEP_2875820; experiment: as above
T7 peptide: RKDQGGYTMHQDQEG

PEP_2875808 = target: T8, PEP_2875808; experiment: as above
T8 peptide: TYGLGDRKDQGGYTM

PEP_2875804 = target: T9, PEP_2875804; experiment: as above
T9 peptide: AGTYGLGDRKDQGGY

PEP_2875816 = target: T10, PEP_2875816; experiment: as above
T10 peptide: GDRKDQGGYTMHQDQ

PEP_2875822 = target: T11, PEP_2875822; experiment: as above
T11 peptide: KDQGGYTMHQDQEGD

PEP_2875826 = target: T12, PEP_2875826; experiment: as above
T12 peptide: QGGYTMHQDQEGDTD

PEP_2875824 = target: T13, PEP_2875824; experiment: as above
T13 peptide: DQGGYTMHQDQEGDT

PEP_2875812 = target: T14, PEP_2875812; experiment: as above
T14 peptide: GLGDRKDQGGYTMHQ

human tau [8] = target: T2, human tau; experiment: competition ELISA on plate-coated human tau against biotinylated HJ8.5; IC50 normalised to chimeric HJ8.5; column External
[9] = target: T15, first 32 amino acids of human tau, expressed on yeast (human, UniProt P10636 1-32); experiment: yeast display, immunofluorescence
T15 construct: range 1-32; Yeast display scaffold not described
T15 chain (looked up): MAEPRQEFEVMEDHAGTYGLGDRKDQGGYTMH
Method: The epitope was mapped using yeast display. For this method, various peptides covering the sequence of human tau were expressed using by yeast. Binding of the HJ8.5 antibody to yeast in culture was measured by immunofluorescence. Binding to yeast, expressing variants of tau that included the first 34 amino acids was observed, but no binding, if the yeast only expressed the first 32 amino acids of tau.

PEP_2875825 = target: T16, PEP_2875825; experiment: peptide array of 15-mers of human tau probed with the antibody; label LIN.AA (double alanine)
T16 peptide: DQGGYTMHQAAEGDT

PEP_2875821 = target: T17, PEP_2875821; experiment: as above
T17 peptide: RKDQGGYTMAADQEG

PEP_2875809 = target: T18, PEP_2875809; experiment: as above
T18 peptide: TYGLGDRKDAAGYTM

PEP_2875823 = target: T19, PEP_2875823; experiment: as above
T19 peptide: KDQGGYTMHAAQEGD

PEP_2875819 = target: T20, PEP_2875819; experiment: as above
T20 peptide: DRKDQGGYTAAQDQE

PEP_2875811 = target: T21, PEP_2875811; experiment: as above
T21 peptide: YGLGDRKDQAAYTMH

PEP_2875817 = target: T22, PEP_2875817; experiment: as above
T22 peptide: GDRKDQGGYAAHQDQ

PEP_2875827 = target: T23, PEP_2875827; experiment: as above
T23 peptide: QGGYTMHQDAAGDTD

human tau [10] = target: T2, human tau; experiment: competition ELISA on plate-coated human tau against biotinylated HJ8.5; IC50 normalised to chimeric HJ8.5; column C2N Run 2
human tau [11] = target: T2, human tau; experiment: competition ELISA on plate-coated human tau against biotinylated HJ8.5; IC50 normalised to chimeric HJ8.5; column C2N Run 1
rhesus monkey tau = target: T24, rhesus monkey tau (rhesus monkey, UniProt P57786 2-60); experiment: direct ELISA on 96-well plates coated with tau at varied concentration; OD 650nm
T24 construct: also called rhesus tau
T24 sequence: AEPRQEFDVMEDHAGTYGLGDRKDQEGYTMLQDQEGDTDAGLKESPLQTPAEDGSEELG
Method: FIG. 10 illustrates the binding results for different anti human tau antibodies to either human or rhesus monkey tau. Murine anti human tau antibodies HJ8.5 and HJ8.7 alongside humanized variant VH1/VK2 (also referred to as C₂N-8E12) were tested. […] In order to determine whether these amino acid difference between the two species of tau, impacts the ability of antibodies HJ8.5/C₂N-8E12 to bind the following experiment was performed. Binding of C₂N-8E12, HJ8.5 (murine precursor of C₂N-8E12), and HJ8.7 (murine anti-human tau antibody that binds to an epitope of tau where the human and rhesus amino acid sequence is 100% conserved) to human and rhesus tau by coating 96 well ELISA plates with either human or rhesus tau at various concentrations was measured. […] As expected, HJ8.7 binds to both human and rhesus tau.

T2 sequence (P10636 2-60 limits assumed): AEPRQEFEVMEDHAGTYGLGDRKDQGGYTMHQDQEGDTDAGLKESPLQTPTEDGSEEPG

Kd [1]: 2.23 nM
koff [1]: 0.0016 s⁻¹
kon [1]: 718000 M⁻¹ s⁻¹
Kd [2]: 1.94 nM
koff [2]: 0.0014 s⁻¹
kon [2]: 723000 M⁻¹ s⁻¹
Kd [3]: 1.79 nM
koff [3]: 0.0013 s⁻¹
kon [3]: 722000 M⁻¹ s⁻¹
Kd [4]: 1.99 nM
koff [4]: 0.00143 s⁻¹
kon [4]: 721000 M⁻¹ s⁻¹
IC50 (Relative to Chimera) (human tau [5]): 1 relative to Chimera
IC50 (Relative to Chimera) (human tau [6]): 1 relative to Chimera
IC50 (Relative to Chimera) (human tau [7]): 1 relative to Chimera
B1: chimeric HJ8.5 monoclonal antibody (antibody, V domains shown)
VH: EVKVEESGGGLVQPGGSMKLSCVVSGFTFSNYWVNWVRQSPEKGLEWVAQIRLKSDNYATHYEESVKGRFTISRDDSKSSVYLQMNNLRAEDSGIYYCTNWEDYWGQGTTLTVSS
VL: DIVLTQSPASLAVSLGQRATISCRASQSVSTSRYSYIHWYQQKPGQPPKLLIKYASNLESGVPARFSGSGSGTDFTLNIHPLEEEDAATYYCHHSWEIPLTFGAGTKLELK
notes: also called chimera; chimeric antibody

Binding Signal (PEP_2875814): 2840
Binding Signal (PEP_2875806): 2640
Binding Signal (PEP_2875810): 2840
Binding Signal (PEP_2875818): 2690
Binding Signal (PEP_2875820): 2700
Binding Signal (PEP_2875808): 2640
Binding Signal (PEP_2875804): 427
Binding Signal (PEP_2875816): 2650
Binding Signal (PEP_2875822): 2700
Binding Signal (PEP_2875826): 399
Binding Signal (PEP_2875824): 2680
Binding Signal (PEP_2875812): 2820
IC50 (Relative to Chimera) (human tau [8]): 1.07 relative to Chimera
binding result [9]: no binding
Binding Signal (PEP_2875825): 2710
Binding Signal (PEP_2875821): 2710
Binding Signal (PEP_2875809): 2810
Binding Signal (PEP_2875823): 2710
Binding Signal (PEP_2875819): 2700
Binding Signal (PEP_2875811): 1780
Binding Signal (PEP_2875817): 2640
Binding Signal (PEP_2875827): 427
IC50 (Relative to Chimera) (human tau [10]): 0.99 relative to Chimera
IC50 (Relative to Chimera) (human tau [11]): 0.79 relative to Chimera
binding result (rhesus monkey tau): no binding
B2: murine anti-tau antibody HJ8.5 (antibody, V domains shown)
VH: B1 VH
VL: B1 VL
notes: Murine monoclonal antibody; also called parent antibody; murine parent
